{
  "source": "paper PMC6710095",
  "key": {"[1]": {"target": "TraN/VirB7 (pKM101-encoded T4SS lipoprotein) (plasmid pKM101)", "test": "negative stain electron microscopy"}, "[2]": {"target": "TraF/VirB10 with C-terminal Strep-tag (TraF/VirB10 C-ST) (plasmid pKM101)"}, "[3]": {"target": "TraO/VirB9 (pKM101-encoded T4SS) (plasmid pKM101)", "test": "negative stain electron microscopy"}, "[4]": {"target": "TraF/VirB10 with C-terminal Strep-tag (TraF/VirB10 C-ST) (plasmid pKM101)", "test": "negative stain electron microscopy"}, "[5]": {"target": "C-terminal fragment of TraF/VirB10 in the D1 complex (residues 1-129 removed) (plasmid pKM101)", "test": "negative stain electron microscopy"}},
  "note": "Where two headings read alike, the source gives them in different places.",
  "data": [
    {"substance": "TraN/VirB7 (pKM101-encoded T4SS lipoprotein) (natural protein)", "values": [
      {"measurement": "stoichiometry N", "setting": "[1]", "value": 14},
      {"measurement": "stoichiometry N", "setting": "[2]", "value": 1}
    ]},
    {"substance": "TraO/VirB9 (pKM101-encoded T4SS) (natural protein)", "values": [
      {"measurement": "stoichiometry N", "setting": "[3]", "value": 14},
      {"measurement": "stoichiometry N", "setting": "[2]", "value": 1}
    ]},
    {"substance": "TraF/VirB10 with C-terminal Strep-tag (TraF/VirB10 C-ST) (natural protein)", "values": [
      {"measurement": "stoichiometry N", "setting": "[4]", "value": 14}
    ]},
    {"substance": "C-terminal fragment of TraF/VirB10 in the D1 complex (residues 1-129 removed) (domain or fragment)", "values": [
      {"measurement": "stoichiometry N", "setting": "[5]", "value": 14}
    ]}
  ]
}
